Results on 23 molecules are retold here after patent US20020058247A1 (TRIPEP, published 2002).

For the first test, the target named is T1, Full length recombinant HBcAg (rHBcAg) encompassing residues 1-183 (hepatitis B virus, UniProt P03146 1-183).
T1 construct: range 1-183; also called hepatitis B virus core antigen
T1 sequence (P03146 whole entry, the tested form may be a part): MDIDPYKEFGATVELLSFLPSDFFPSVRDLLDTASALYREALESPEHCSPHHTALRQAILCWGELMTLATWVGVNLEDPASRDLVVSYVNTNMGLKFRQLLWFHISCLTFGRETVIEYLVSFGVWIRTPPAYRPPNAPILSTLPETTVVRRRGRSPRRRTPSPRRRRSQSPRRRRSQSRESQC
Kind of test: EIA, support-bound peptide, HBcAg 5 ug/ml.
On to YSYMHWY [YSYMHWY (SEQ. ID. No. 64)], for which the “OD at 490 nm” value was 0.245 OD.
As to SVKLSCKASGYIFTS [SVKLSCKASGYIFTS (SEQ. ID. No. 43)], the “OD at 490 nm” value came to 3.36 OD.
As for CRASQSVSTSSYSYMHWY [CRASQSVSTSSYSYMHWY (SEQ. ID. No. 54)], the “OD at 490 nm” value amounted to 1.42 OD.
As for ASVKLSCKASGYIFTS [ASVKLSCKASGYIFTS (SEQ. ID. No. 42)], the “OD at 490 nm” value was 3.22 OD.
Still for that read-out and setting: then SYMHWY [SYMHWY (SEQ. ID. No. 65)], with 0.218 OD; and TSSYSYMHWY [TSSYSYMHWY (SEQ. ID. No. 62)], with 0.317 OD; and VSTSSYSYMHWY [VSTSSYSYMHWY (SEQ. ID. No. 60)], with 0.369 OD.
Still for that read-out and setting: then GASVKLSCKASGYIFTS [GASVKLSCKASGYIFTS (SEQ. ID. No. 41)], with 2.86 OD; and SCRASQSVSTSSYSYMHWY [SCRASQSVSTSSYSYMHWY (SEQ. ID. No. 53)], with 1.45 OD; and STSSYSYMHWY [STSSYSYMHWY (SEQ. ID. No. 61)], with 0.372 OD.
Same read-out and setting: then PGASVKLSCKASGYIFTS [PGASVKLSCKASGYIFTS (SEQ. ID. No. 40)], with 1.72 OD; and SSYSYMHWY [SSYSYMHWY (SEQ. ID. No. 63)], with 0.311 OD; and KPGASVKLSCKASGYIFTS [KPGASVKLSCKASGYIFTS (SEQ. ID. No. 39)], with 1.34 OD.
On to SVSTSSYSYMHWY [SVSTSSYSYMHWY (SEQ. ID. No. 59)], for which the “OD at 490 nm” value was 0.305 OD.
Still for that read-out and setting: in the case of SQSVSTSSYSYMHWY [SQSVSTSSYSYMHWY (SEQ. ID. No. 57)] it was 0.31 OD; in that of KLSCKASGYIFTS [KLSCKASGYIFTS (SEQ. ID. No. 45)], 3.69 OD; in that of SYSYMHWY [SYSYMHWY (printed with SEQ. ID. No. 63, a number already used for …)], 0.283 OD.
Still for that read-out and setting: in the case of ASQSVSTSSYSYMHWY [ASQSVSTSSYSYMHWY (SEQ. ID. No. 56)] it was 0.324 OD.
Same read-out and setting: in the case of QSVSTSSYSYMHWY [QSVSTSSYSYMHWY (SEQ. ID. No. 58)] it was 0.282 OD.
On to VKLSCKASGYIFTS [VKLSCKASGYIFTS (SEQ. ID. No. 44)], for which the “OD at 490 nm” value came out at 3.7 OD.

A further test addresses T1, Full length recombinant HBcAg (rHBcAg) …. In words: EIA, support-bound peptide, HBcAg 0.2 ug/well.
With EQGLEWIGWIFPGEGSTEYN (also called Peptide # 5) [EQGLEWIGWIFPGEGSTEYN (SEQ. ID. No. 8)], the “OD at 405 nm” value amounted to 0.256 OD.
Same read-out and setting: in the case of VDKSSSTAYMELTRLTSEDS (also called Peptide # 8) [VDKSSSTAYMELTRLTSEDS (SEQ. ID. No. 11)] it was 0.134 OD; in that of TGFAYWGQGTLVTVSAAKTT (also called Peptide # 34) [TGFAYWGQGTLVTVSAAKTT (SEQ. ID. No. 37)], 0.192 OD.

For the next test the target is unchanged. Kind of test: EIA, support-bound peptide, HBcAg 2 ug/well.
As for EQGLEWIGWIFPGEGSTEYN (also called Peptide # 5) [EQGLEWIGWIFPGEGSTEYN (SEQ. ID. No. 8)], the “OD at 405 nm” value turned out to be 0.706 OD.
Same read-out and setting: then VDKSSSTAYMELTRLTSEDS (also called Peptide # 8) [VDKSSSTAYMELTRLTSEDS (SEQ. ID. No. 11)], with 0.363 OD; and TGFAYWGQGTLVTVSAAKTT (also called Peptide # 34) [TGFAYWGQGTLVTVSAAKTT (SEQ. ID. No. 37)], with 0.898 OD.

The target is the same in the next test. In words: competition EIA, peptide added to HBcAg before mAb 4-2 (competitor); OD of bound mAb.
With SVKLSCKASGYIFTS [SVKLSCKASGYIFTS (SEQ. ID. No. 43)], the “OD at 490 nm” value worked out at 0.175 OD.
The same measure, in the same setting: in the case of ASVKLSCKASGYIFTS [ASVKLSCKASGYIFTS (SEQ. ID. No. 42)] it was 0.207 OD; in that of GASVKLSCKASGYIFTS [GASVKLSCKASGYIFTS (SEQ. ID. No. 41)], 0.205 OD.
On the same count and under the same terms, then PGASVKLSCKASGYIFTS [PGASVKLSCKASGYIFTS (SEQ. ID. No. 40)], with 0.182 OD; and KPGASVKLSCKASGYIFTS [KPGASVKLSCKASGYIFTS (SEQ. ID. No. 39)], with 0.202 OD; and KLSCKASGYIFTS [KLSCKASGYIFTS (SEQ. ID. No. 45)], with 0.808 OD.
Same read-out and setting: then VKLSCKASGYIFTS [VKLSCKASGYIFTS (SEQ. ID. No. 44)], with 0.152 OD.

For the next test, the target named is T2, non-structural 3 protein (NS3) of the hepatitis C virus (HCV) (hepatitis C virus).
T2 construct: Control antigen; also called HCV NS3
Kind of test: EIA, support-bound peptide, HCV NS3 control.
Turning to EQGLEWIGWIFPGEGSTEYN (also called Peptide # 5) [EQGLEWIGWIFPGEGSTEYN (SEQ. ID. No. 8)], the “OD at 405 nm” value was 0.182 OD.
Take VDKSSSTAYMELTRLTSEDS (also called Peptide # 8) [VDKSSSTAYMELTRLTSEDS (SEQ. ID. No. 11)]: the “OD at 405 nm” value was determined as 0.041 OD.
For TGFAYWGQGTLVTVSAAKTT (also called Peptide # 34) [TGFAYWGQGTLVTVSAAKTT (SEQ. ID. No. 37)], the “OD at 405 nm” value is 0.035 OD.
